Common to all, as to assay type: in vivo, mice
One data set concerns substantia nigra (SN). The data set is described as follows: Promoter screening: YFP-expressing neurons after injection of AAVs into the SNr, substantia nigra. Conditions: numbers of YFP-expressing neurons per animal. The source says:
(§1) To find promoters that offer high levels of expression in MSNs, gene expression databases were scanned to identify a list of eight genes that have highly enriched striatal expression compared to other parts of the basal ganglia (BG). Genes highly expressed in the striatum, but not other parts of the basal ganglia, were first selected as candidates.
(§2) Brain profiles of two epigenetic marks for enhancers and promoters, monomethylation of histone H3 lysine 4 (H3K4me1) and acetylation of histone H3 lysine 27 (H3K27ac) were checked and approximately 2 kilobase-long sequences around the transcriptional start site (TSS) that have high levels of H3K4me1 and/or H3K27ac were identified in mouse brain. Homologous sequences at equivalent positions of the human genome were then cloned onto an AAV backbone, and the activity of the homologous sequences in directing reporter expression was tested in mice after injections of AAVs into the SNr (FIG. 3A-C, TABLE 3).
(§3) G88P2 (2259 bp) was cloned with the following primers: 5′-[…] (SEQ ID NO.: 36) and 3-[…] (SEQ ID NO.: 37). To increase the payload of AAV genome, the G88P2 promoter was shorted using restriction enzymes, and two derivatives, G88P3 and G88P7, were made which were 1395-bp and 896-bp long, respectively (FIG. 3A-3C). Comparative efficiency in labeling MSNs for the two shortened promoters was observed. For mice that received viral injections into the SNr, viruses expressing EYFP driven by G88P3 and G88P7 promoters labeled 3.7±0.66×104 and 3.95±0.73×104 MSNs per mouse, respectively, compared to 1.61±0.16×104 labeled MSNs by hSyn promoter (FIG. 4B).
(§4) Region-selective promoter identification was based on the Allen Brain Atlas in situ hybridization (ISH) data (mouse.brain-map.org/). Genes highly expressed in the striatum but not in other parts of the basal ganglia were first selected as candidates. H3K4me 1 and H3K27ac are known epigenetic marks for active promoters and enhancers. Thus, we identified regions with high levels of these two chromatin modification marks in mouse brain as candidate regions based on the ENCODE annotation data on the UCSC Genome Browser (genome.ucsc.edu/). To further extend the promoters' potential application in primates, the sequences of interest were PCR-amplified from human genomic DNA. Based on the above strategies, GPR88 was selected as a candidate gene. […]
(§5) Images were acquired using a confocal microscope (Carl Zeiss, LSM880) and an Axiolmager. […] Every sixth section was analyzed, and numbers of EYFP+ cells were multiplied by six to acquire the approximate total number and mean number of cells per animal. Images were processed using ImageJ (NIH, USA), and final quantifications were independently performed manually by two blinded experimenters.

In the next data set the test system is striatum (STR). The data set is described as follows: Promoter screening: YFP-expressing neurons after injection of AAVs into the SNr, striatum. Conditions: numbers of YFP-expressing neurons per animal.
From the text: as §1, §2, §3, §4, §5

For data set [1], the system named is striatonigral projection neurons (D1 MSNs). The data set is described as follows: Retrograde labeling of striatal MSNs after AAV injection into the SNr, EYFP+ cell counting. The settings on record: for labeled neurons, reporter expression in MSNs by promoter (FIG. 4B), mean±SEM: promoter comparison. As to the method: To improve efficiency, multiple rounds of mutations of AAV capsids were performed on a series of different serotypes. Mutations were introduced at three sites in the AAV8 capsid protein to make AAV8R, including N385D, insertion of […] (SEQ ID NO: 31) at position 588, and TS711-7121N. Two additional mutations of V183E and N41 IS were incorporated into the AAV8R12 capsid protein (FIG. 1A). The labeling pattern of the AAV8R12 capsid and G88 promoter combination was determined.
was inserted at the N587-R588 position; two other point mutations of the AAV2 Cap protein were made to develop rAAV2-retro. Similar mutations were then placed at equivalent positions for four other AAV serotypes (FIGS. 1A-1C and 25, TABLE 1), AAV1/5/6/8 (FIG. 1A). […] When administered into the SNr, 4.86±0.22 times EYFP positive MSNs in mice infected by AAV8R-hSyn-EYFP were observed as compared to those infected by rAAV2-retro-hSyn-EYFP (FIG. 2A-2C).
Baseline infectivity of rAAV2-retro was approximately 0.2±0.03×10^4 cells per striatal hemisphere (using a hSyn promoter) (TABLE 2). […] Compared to the current standard retrograde AAV, rAAV2-retro, AAV8R12 labeled 7.72±0.78-times more MSNs after nigral delivery (FIG. 2B-2C, TABLE 1). […] The AAV8R12 was generated using the AAV8R plasmid as a template.
Mice were anesthetized with sodium pentobarbital (Nembutal; 80 mg/kg, i.p.), and then placed into a stereotaxic device (KOPF). Eye cream was applied on both corneas to avoid dehydration. The skull above the targeted areas was thinned with a dental drill and carefully removed. Injections were conducted with a 10 μL syringe connected to a 33-Gauge needle (Neuros; Hamilton), using a microsyringe pump (Legato 130, KD Scientific). A total volume of 200 nL virus was injected into the SNr at a speed of 20 nL/min. The coordinates for the SNr were 3.4 mm posterior, 1.3 mm lateral, 4.8 mm ventral to the bregma.
Images were acquired using a confocal microscope (Carl Zeiss, LSM880) and an Axiolmager. Z1 microscope with apotome (Carl Zeiss). Brain structures were identified microscopically and in digital photos using a mouse brain atlas. To analyze the number of EYFP+ cells in the striatum, slices from rostral to caudal striatum were used. Every sixth section was analyzed, and numbers of EYFP+ cells were multiplied by six to acquire the approximate total number and mean number of cells per animal. Images were processed using ImageJ (NIH, USA), and final quantifications were independently performed manually by two blinded experimenters.

For data set [2], the system named is MSNs in nucleus accumbens. Description: Retrograde labeling of accumbal MSNs after delivery into ventral pallidum or lateral hypothalamus. The settings on record: stereotaxic delivery into ventral pallidum or lateral hypothalamus.

The record followed here is US20250382346A1, “NEURONAL PROMOTERS AND USES THEREOF” (priority 2023, published 2025).

Take “G88P2: 2259-bp promoter from the gene GPR88; SEQ ID NO: 44”: in the data set on substantia nigra (SN), the “Activity Level SN” value is “+ (<5k)”. Further, the “Activity Level STR” value in the data set on striatum (STR) was “++++ (>25k)”. Also, the “labeled neurons, reporter expression in MSNs by promoter (FIG. 4B), mean±SEM” value (“labeled neurons, reporter expression … mean±SEM” below) in data set [1] (n=3 mice per group) amounted to 36290±3705.
In the case of “R9P1: promoter from gene RGS9, 2152 bp; SEQ ID NO: 47”, in the data set with substantia nigra (SN), the “Activity Level SN” value is recorded as “+ (<5k)”. Besides, in the data set with striatum (STR), the “Activity Level STR” value is recorded as “+++ (10k-25k)”.

B1: AAV8R: AAV8 capsid with N385D, insertion of SEQ ID NO: 31 at position 588 and TS to IN mutation; Cap SEQ ID NO: 1 (protein)
chain: MAADGYLPDWLEDNLSEGIREWWALKPGAPKPKANQQKQDDGRGLVLPGYKYLGPFNGLDKGEPVNAADAAALEHDKAYDQQLQAGDNPYLRYNHADAEFQERLQEDTSFGGNLGRAVFQAKKRVLEPLGLVEEGAKTAPGKKRPVEPSPQRSPDSSTGIGKKGQQPARKRLNFGQTGDSESVPDPQPLGEPPAAPSGVGPNTMAAGGGAPMADNNEGADGVGSSSGNWHCDSTWLGDRVITTSTRTWALPTYNNHLYKQISNGTSGGATNDNTYFGYSTPWGYFDFNRFHCHFSPRDWQRLINNNWGFRPKRLSFKLFNIQVKEVTQNEGTKTIANNLTSTIQVFTDSEYQLPYVLGSAHQGCLPPFPADVFMIPQYGYLTLNDGSQAVGRSSFYCLEYFPSQMLRTGNNFQFTYTFEDVPFHSSYAHSQSLDRLMNPLIDQYLYYLSRTQTTGGTANTQTLGFSQGGPNTMANQAKNWLPGPCYRQQRVSTTTGQNNNSNFAWTAGTKYHLNGRNSLANPGIAMATHKDDEERFFPSNGILIFGKQNAARDNADYSDVMLTSEEEIKTTNPVATEEYGIVADNLQRGNLADQDYTKTARQAATADVNSQGALPGMVWQNRDVYLQGPIWAKIPHTDGNFHPSPLMGGFGLKHPPPQILIKNTPVPADPPTTFNQSKLNSFITQYSTGQVSVEIEWELQKENSKRWNPEIQYTSNYYKSINVDFAVNTEGVYSEPRPIGTRYLTRNL
For B1, in data set [2], the “labeling of MSNs in nucleus accumbens” value is “robust labeling of MSNs”. Also, the “EYFP positive / labeled MSNs compared to rAAV2-retro” value in data set [1] (after nigral delivery, hSyn-EYFP) came to 4.86±0.22 times. Besides, in data set [1] (capsid comparison, injection into SNr of wild type mice, n=3 mice per group), the “labeled striatonigral projection neurons (FIG. 2C), mean±SEM” value worked out at 10092±463.9. For the same molecule, in data set [1] (labeled cells after nigral injection in mice, b188 refers to it as cells per striatal hemisphere, SD and SEM in own columns), the “Mean (AAVs with capsid and promoter)” value was determined as 10092.

B2: G88P7: 896-bp shortened GPR88 promoter; SEQ ID NO: 46 (nucleic acid, listed as Homo sapiens)
DNA: ATGCCAAGCGTGGAAAGGCTGTCTTTTCCCTGGATGATGTATAACTAAGCAGGAGAGAGCTTCGAGTGGGTTCACCACATCAGCCACCACTCCTGCTTCTGAGCACAGGGTGCTCTCCTCTTGAGCTCAGCTTCTGCTTTTGCAGCCAAGCATTCTTGCTGCTGCTGCCTGCCTGCCCACCCGCCTGGGCTTGCAGCCCGCCACTTTACTTTCTCCAGCCCTGATACCAGCTGAGAAGTCTCCCTGCAGCTGCTAGTTCCTGCCCAGGACCATGTGTGTGGATGCTGCTTGGGAGAAGCGGGCACTTGCTCCTGGCACTGATCCCAGCTGAGTTTCTCCTGTTGATTTCTGGACCACTGATGCTGTTGCTGAGGAGGTATTTCCCGGCATCCCTCCCCCTGAGACACCGGCTAAGGACCAGCCTAAACGCAAGGTAACCTTCACCTCTTTCCCATGGGATTTTCCCCAGCTGGGATATCTCTGCTTTCTCCTGGAACTAGGTCCTCCAGCTGGCAACATATCTCTCTCTCTCTCTCTCTCTCTCTCTCTCTCTCTCTCTCTGTGTGTGTGTGTGTGTGTTGGGGGAGAAGAGGAGACTGTTTTAGGTATTGCTCTGTCCTAGGGCTTCCCCGATACCTGCTGAATCCAATGCAAAGTGGCCTTTCCCCTGGCTCTGGAGACATTTCCGAGGCAGGCACCTGTCATCTGCCACCCCCGTCCTCCTCCTCGAGCTCCCTTTCTCCCCCTCCCCCAGCCCATTATTCTGCTTCAGCCTTTTGTGTCAGTGGCAGAGGGCTGAAGGGATGTCTTTGCCCTTCTGGCAGGCAGGACAGTGTCAGGATGGACCGCGCTGCCAGAAGCCGACGCTAGCGAGGGAGGTGTGAAGAGTTGGCCAG
As for B2, in the data set on substantia nigra (SN), the “Activity Level SN” value was “+ (<5k)”. Further, the “Activity Level STR” value in the data set on striatum (STR) is recorded as “++++ (>25k)”. Moreover, the “labeled neurons, reporter expression … mean±SEM” value in data set [1] (n=3 mice per group) is given as 39460±7281.

B3: G88P3: 1395-bp shortened GPR88 promoter; SEQ ID NO: 45 (nucleic acid, listed as Homo sapiens)
DNA: TCTAGATGTACCACTGACATCTGCTTTAAATCTTTTGCCCATTTCATTTTTACCCTCTAACCATTTCATTACTAAAACACAAAACAAACTCCGGAAAGGAGTTTGTTGATGAGAAAACACTGAAAGTACGATTTAAATTGAGGAATGGAGATTTTCTGTGGATAATTGTCTATGTTCCACTTTACCAAAGAAAAATGAATTTCAAGTAGTGCATAAAGTAATTCTCGTTAAAAAATGTGGGAATAAAGAGATCAGTCCTGGGTACTGGGAATATATTTATCTCACAGAAAAATCTTGCCCACAAAATGCATCAGACTGAGATGAAATACTCTAGGGTATATTAAATTTTATTCTAATATTGAAGGGAGGGAAAAAAAGGACGGAAAGAAAAATGAAACAGGATGAAAAATAAGGTGATTGGGAGAGAGAAAAGACAGAGAAACTTGTTAACGACAGGACTTTCTGAGCAAGATATTTTTCTTCCTTTTACAAGTTGGAAGCTATTGAATAATTCATGCCAAGCGTGGAAAGGCTGTCTTTTCCCTGGATGATGTATAACTAAGCAGGAGAGAGCTTCGAGTGGGTTCACCACATCAGCCACCACTCCTGCTTCTGAGCACAGGGTGCTCTCCTCTTGAGCTCAGCTTCTGCTTTTGCAGCCAAGCATTCTTGCTGCTGCTGCCTGCCTGCCCACCCGCCTGGGCTTGCAGCCCGCCACTTTACTTTCTCCAGCCCTGATACCAGCTGAGAAGTCTCCCTGCAGCTGCTAGTTCCTGCCCAGGACCATGTGTGTGGATGCTGCTTGGGAGAAGCGGGCACTTGCTCCTGGCACTGATCCCAGCTGAGTTTCTCCTGTTGATTTCTGGACCACTGATGCTGTTGCTGAGGAGGTATTTCCCGGCATCCCTCCCCCTGAGACACCGGCTAAGGACCAGCCTAAACGCAAGGTAACCTTCACCTCTTTCCCATGGGATTTTCCCCAGCTGGGATATCTCTGCTTTCTCCTGGAACTAGGTCCTCCAGCTGGCAACATATCTCTCTCTCTCTCTCTCTCTCTCTCTCTCTCTCTCTGTGTGTGTGTGTGTGTGTTGGGGGAGAAGAGGAGACTGTTTTAGGTATTGCTCTGTCCTAGGGCTTCCCCGATACCTGCTGAATCCAATGCAAAGTGGCCTTTCCCCTGGCTCTGGAGACATTTCCGAGGCAGGCACCTGTCATTTGCCACCCCCGTCCTCCTCCTCGAGCTCCCTTTCTCCCCCTCCCCCAGCCCATTATTCTGCTTCAGCCTTTTGTGTCAGTGGCAGAGGGCTGAAGGGATGTCTTTGCCCTTCTGGCAGGCAGGACAGTGTCAGGATGGACCGCGCTGCCAGAAGCCGACGCTAGCGAGGGAGGTGTGAA
Take B3: in the data set on substantia nigra (SN), the “Activity Level SN” value is reported as “+ (<5k)”. In addition, the “Activity Level STR” value with striatum (STR) is “++++ (>25k)”. Besides, in data set [1] (n=3 mice per group), the “labeled neurons, reporter expression … mean±SEM” value stood at 37026±6646.
